# In IntAct's records for PubMed 10521435:
# B1: Chaperone protein DnaJ (Escherichia coli (strain K12)), P08622 (parent)
# chain: MAKQDYYEILGVSKTAEEREIRKAYKRLAMKYHPDRNQGDKEAEAKFKEIKEAYEVLTDSQKRAAYDQYGHAAFEQGGMGGGGFGGGADFSDIFGDVFGDIFGGGRGRQRAARGADLRYNMELTLEEAVRGVTKEIRIPTLEECDVCHGSGAKPGTQPQTCPTCHGSGQVQMRQGFFAVQQTCPHCQGRGTLIKDPCNKCHGHGRVERSKTLSVKIPAGVDTGDRIRLAGEGEAGEHGAPAGDLYVQVQVKQHPIFEREGNNLYCEVPINFAMAALGGEIEVPTLDGRVKLKVPGETQTGKLFRMRGKGVKSVRGGAQGDLLCRVVVETPVGLNERQKQLLQELQESFGGPTGEHNSPRSKSFFDGVKKFFDDLTR
# Variants of: B1
# Conditions: with dnak_ecoli dnaK
row,effect of a mutation on the interaction,Variant
1,decreasing interaction,MAKQDYYEILGVSKTAEEREIRKAYKRLAMKYHPDRNQGDKEAEAKFKEIKEAYEVLTDSQKAAAYDQYGHAAFEQGGMGGGGFGGGADFSDIFGDVFGDIFGGGRGRQRAARGADLRYNMELTLEEAVRGVTKEIRIPTLEECDVCHGSGAKPGTQPQTCPTCHGSGQVQMRQGFFAVQQTCPHCQGRGTLIKDPCNKCHGHGRVERSKTLSVKIPAGVDTGDRIRLAGEGEAGEHGAPAGDLYVQVQVKQHPIFEREGNNLYCEVPINFAMAALGGEIEVPTLDGRVKLKVPGETQTGKLFRMRGKGVKSVRGGAQGDLLCRVVVETPVGLNERQKQLLQELQESFGGPTGEHNSPRSKSFFDGVKKFFDDLTR [R63A]
2,decreasing interaction,MAKQDYYEILGVSKTAEEREIRKAYKRLAMKYHPDRNQGDKEAEAKFKEIKEAYEVLTDSQAAAAYDQYGHAAFEQGGMGGGGFGGGADFSDIFGDVFGDIFGGGRGRQRAARGADLRYNMELTLEEAVRGVTKEIRIPTLEECDVCHGSGAKPGTQPQTCPTCHGSGQVQMRQGFFAVQQTCPHCQGRGTLIKDPCNKCHGHGRVERSKTLSVKIPAGVDTGDRIRLAGEGEAGEHGAPAGDLYVQVQVKQHPIFEREGNNLYCEVPINFAMAALGGEIEVPTLDGRVKLKVPGETQTGKLFRMRGKGVKSVRGGAQGDLLCRVVVETPVGLNERQKQLLQELQESFGGPTGEHNSPRSKSFFDGVKKFFDDLTR [K62A;R63A]
3,decreasing interaction,MAKQDYYEILGVSKTAEEREIRKAYKRLAMKYHPDRNQGDKEAEAKFKEIKEAYEVLTDSQARAAYDQYGHAAFEQGGMGGGGFGGGADFSDIFGDVFGDIFGGGRGRQRAARGADLRYNMELTLEEAVRGVTKEIRIPTLEECDVCHGSGAKPGTQPQTCPTCHGSGQVQMRQGFFAVQQTCPHCQGRGTLIKDPCNKCHGHGRVERSKTLSVKIPAGVDTGDRIRLAGEGEAGEHGAPAGDLYVQVQVKQHPIFEREGNNLYCEVPINFAMAALGGEIEVPTLDGRVKLKVPGETQTGKLFRMRGKGVKSVRGGAQGDLLCRVVVETPVGLNERQKQLLQELQESFGGPTGEHNSPRSKSFFDGVKKFFDDLTR [K62A]
